Assay [1] addresses T1, CD137 expressed on the cell surface (CHO/CD137 cells) (UniProt Q07011 24-255, limits assumed).
T1 construct: whole, on cells; also called cell surface CD137; Jurkat-NF-κB-Luc reporter cells overexpressing CD137
The assay is described as follows: flow cytometry (FACS) on CHO cells expressing CD137, MFI. On the procedure:
FACS analysis to evaluate the test articles for binding to cell surface CD137 was performed essentially as follows: 100 μL of CHO cells expressing CD137 (CHO/CD137) (1.0×10⁵ to 1×10⁶ cells/well) and 100 μL of serially diluted test article or control was added to each well of microtiter assay plate(s), mixed and incubated at RT for about 30 min. The cells were washed with FACS Buffer and secondary antibody (goat anti-human-APC, PE, or FITC) was then added to each well (1:1000), after which, the components were mixed and the wells were incubated at RT for about 30 min. Cells were washed and resuspended in 250 μL FACS Buffer and analyzed by flow cytometry (BD LSR Fortessa or FACSCanto II) for cell events collection. Data analysis were performed via FloJo v10.

The target of assay [2] is T2, PD-L1 expressed on the cell surface (CHO/PD-L1 cells) (UniProt Q9NZQ7 19-290).
T2 construct: whole, on cells; also called PD-L1 on JIMT-1 cells
T2 sequence (Q9NZQ7 19-290): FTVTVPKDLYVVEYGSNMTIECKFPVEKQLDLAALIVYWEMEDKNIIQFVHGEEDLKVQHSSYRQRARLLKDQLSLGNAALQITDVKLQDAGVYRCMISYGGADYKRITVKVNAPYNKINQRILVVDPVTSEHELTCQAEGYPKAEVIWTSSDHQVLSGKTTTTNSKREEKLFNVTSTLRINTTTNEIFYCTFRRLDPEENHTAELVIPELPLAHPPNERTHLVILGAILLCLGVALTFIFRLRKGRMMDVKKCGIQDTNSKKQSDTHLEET
The assay is described as follows: flow cytometry (FACS) on CHO cells expressing PD-L1, MFI. On the procedure:
FACS analysis to evaluate the test articles for binding to cell surface PD-L1 was performed essentially as follows: 100 μL of CHO cells expressing PD-L1 (CHO/PD-L1) (1.0×10⁵ to 1.0×10⁶ cells/well) and 100 μL of serially diluted test article was added to each well of microtiter assay plate(s), mixed and incubated at RT for about 30 min. The cells were washed with FACS Buffer and secondary antibody (goat anti-human-FITC, PE, or APC) was then added to each well, after which, the components were mixed and the wells were incubated at RT for about 30 min. Cells were washed and resuspended in 250 μL FACS Buffer and analyzed by flow cytometry (BD LSR Fortessa or FACSCanto II) for cell events collection. Data analysis were performed via FloJo v10.
Test articles were used at 10 μg/mL and five-fold serial dilutions for the FACS analysis and at 50 μg/mL and five-fold serial dilutions for the PD-L1 reporter assay.
For orientation: Flow cytometry measures light scatter and fluorescence of single cells or particles in a stream.

For assay [3], the target named is T2, PD-L1 expressed on the cell surface …. The assay is described as follows: cell-based or functional assay.
Assay [4] has the same target. The assay is described as follows: cell-based or functional assay. This is another data set of the same source.
For assay [5] the target is unchanged. The assay is described as follows: cell-based or functional assay. The source holds these as a separate data set.
Assay [6] has the same target. Kind of assay: flow cytometry (FACS) on JIMT-1 cells (PD-L1 positive), MFI.
Assay [7] concerns the target T1, CD137 expressed on the cell surface …. Kind of assay: flow cytometry (FACS) on CHO cells expressing CD137, MFI. The source holds these as a separate data set.

Read-outs that look alike come from different tables or passages of the source.

T1 sequence (Q07011 24-255 limits assumed): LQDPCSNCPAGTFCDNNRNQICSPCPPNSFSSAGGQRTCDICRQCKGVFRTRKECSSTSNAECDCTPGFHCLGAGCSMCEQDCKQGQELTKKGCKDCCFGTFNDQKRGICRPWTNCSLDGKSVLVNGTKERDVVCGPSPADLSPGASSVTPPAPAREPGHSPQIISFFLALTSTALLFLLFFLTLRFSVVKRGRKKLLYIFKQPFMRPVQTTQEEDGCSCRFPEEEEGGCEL

B1: TRIDENT-A (bispecific antibody, human IgG1, kappa, L234A L235A)
chain 1: EIVMTQSPATLSLTPGERATLSCRASQSVSSNYLSWFQQIPGQAPRLLIYGASTRATGIPARFSGSGSGTDFTLTISSLQPEDFAVYYCQQDYDLPWTFGQGTKVEIKGGGSGGGGQVQLQESGPGLVKPSETLSLTCTVSGGSISSYYWSWIRQPPGKGLEWIGRIYTSGSTNYNPSLKSRVTMSVDTSKNQFSLKLSSVTAADTAVYYCARDGWYDEDYNYYGMDVWGQGTTVTVSSGGCGGGEVAALEKEVAALEKEVAALEKEVAALEKGGGDKTHTCPPCPAPEAAGGPSVFLFPPKPKDTLYITREPEVTCVVVDVSHEDPEVKFNWYVDGVEVHNAKTKPREEQYNSTYRVVSVLTVLHQDWLNGKEYKCKVSNKALPAPIEKTISKAKGQPREPQVYTLPPSREEMTKNQVSLWCLVKGFYPSDIAVEWESNGQPENNYKTTPPVLDSDGSFFLYSKLTVDKSRWQQGNVFSCSVMHEALHNHYTQKSLSLSPGK
chain 2: EIVMTQSPATLSLTPGERATLSCRASQSVSSNYLSWFQQIPGQAPRLLIYGASTRATGIPARFSGSGSGTDFTLTISSLQPEDFAVYYCQQDYDLPWTFGQGTKVEIKGGGSGGGGQVQLQESGPGLVKPSETLSLTCTVSGGSISSYYWSWIRQPPGKGLEWIGRIYTSGSTNYNPSLKSRVTMSVDTSKNQFSLKLSSVTAADTAVYYCARDGWYDEDYNYYGMDVWGQGTTVTVSSGGCGGGKVAALKEKVAALKEKVAALKEKVAALKE
heavy: EVQLVESGGGLVQPGGSLRLSCAASGFTFSSYTMSWVRQAPGKGLEWVAYISIGGGTTYYPDTVKGRFTISRDNAKNTLYLQMNSLKTEDTAVYYCARQGLPYYFDYWGQGTLVTVSSASTKGPSVFPLAPSSKSTSGGTAALGCLVKDYFPEPVTVSWNSGALTSGVHTFPAVLQSSGLYSLSSVVTVPSSSLGTQTYICNVNHKPSNTKVDKRVEPKSCDKTHTCPPCPAPEAAGGPSVFLFPPKPKDTLYITREPEVTCVVVDVSHEDPEVKFNWYVDGVEVHNAKTKPREEQYNSTYRVVSVLTVLHQDWLNGKEYKCKVSNKALPAPIEKTISKAKGQPREPQVYTLPPSREEMTKNQVSLSCAVKGFYPSDIAVEWESNGQPENNYKTTPPVLDSDGSFFLVSKLTVDKSRWQQGNVFSCSVMHEALHNRYTQKSLSLSPGK
light: DIQMTQSPSSLSASVGDRVTITCKASQDVNTAVAWYQQKPGKAPKLLIYWASTRHTGVPSRFSGSGSGTDFTLTISSLQPEDFATYYCQQHYNTPLTFGQGTKVEIKRTVAAPSVFIFPPSDEQLKSGTASVVCLLNNFYPREAKVQWKVDNALQSGNSQESVTEQDSKDSTYSLSSTLTLSKADYEKHKVYACEVTHQGLSSPVTKSFNRGEC
notes: Trivalent: two CD137 MAB-6(1.1) sites, one hPD-L1 MAB-2(1.1) Fab-type site
What is called EC50 (read off the curve) is the midpoint of the concentration-response curve. Higher therefore signals weaker potency. Take B1: the 50% effective concentration (EC50 (read off the curve)) in assay [1] is around 0.02 µg/mL; in assay [2], around 0.08 µg/mL.

B2: DART-A7 (bispecific antibody)
chain 1: DIQMTQSPSSLSASVGDRVTITCKASQDVNEAVAWYQQKPGKAPKLLIYWASTRHTGVPSRFSGSGSGTDFTLTISSLQPEDFATYYCQQHYNTPLTFGQGTKVEIKGGGSGGGGQVQLQESGPGLVKPSETLSLTCTVSGGSISSYYWSWIRQPPGKGLEWIGRIYTSGSTNYNPSLKSRVTMSVDTSKNQFSLKLSSVTAADTAVYYCARDGWYDEDYNYYGMDVWGQGTTVTVSSGGCGGGEVAACEKEVAALEKEVAALEKEVAALEKLEPKSADKTHTCPPCPAPEAAGGPSVFLFPPKPKDTLYITREPEVTCVVVDVSHEDPEVKFNWYVDGVEVHNAKTKPREEQYNSTYRVVSVLTVLHQDWLNGKEYKCKVSNKALPAPIEKTISKAKGQPREPQVYTLPPSREEMTKNQVSLTCLVKGFYPSDIAVEWESNGQPENNYKTTPPVLDSDGSFFLYSKLTVDKSRWQQGNVFSCSVMHEALHNHYTQKSLSLSPGK
chain 2: EIVMTQSPATLSLTPGERATLSCRASQSVSSNYLSWFQQIPGQAPRLLIYGASTRATGIPARFSGSGSGTDFTLTISSLQPEDFAVYYCQQDYDLPWTFGQGTKVEIKGGGSGGGGEVQLVESGGGLVQPGGSLRLSCAASGFTFSSYTMSWVRQAPGKGLEWVAYISIGGGTTYYPDTVKGRFTISRDNAKNSLYLQMNSLRAEDTAVYYCARAGLPYYFDYWGQGTLVTVSSGGCGGGKVAACKEKVAALKEKVAALKEKVAALKE
notes: Tetravalent; CD137 MAB-6(1.1) and hPD-L1 MAB-2(4.2)
Turning to B2, the “EC50 (read off the curve)” value in assay [3] is around 0.1 µg/mL; in assay [4], around 0.2 µg/mL; in assay [1], around 0.05 µg/mL.

B3: DART-A1 (bispecific antibody)
first and third polypeptide chains: DIQMTQSPSSLSASVGDRVTITCKASQDVNTAVAWYQQKPGKAPKLLIYWASTRHTGVPSRFSGSGSGTDFTLTISSLQPEDFATYYCQQHYNTPLTFGQGTKVEIKGGGSGGGGQVQLQESGPGLVKPSETLSLTCTVSGGSISSYYWSWIRQPPGKGLEWIGRIYTSGSTNYNPSLKSRVTMSVDTSKNQFSLKLSSVTAADTAVYYCARDGWYDEDYNYYGMDVWGQGTTVTVSSGGCGGGEVAACEKEVAALEKEVAALEKEVAALEKLEPKSADKTHTCPPCPAPEAAGGPSVFLFPPKPKDTLYITREPEVTCVVVDVSHEDPEVKFNWYVDGVEVHNAKTKPREEQYNSTYRVVSVLTVLHQDWLNGKEYKCKVSNKALPAPIEKTISKAKGQPREPQVYTLPPSREEMTKNQVSLTCLVKGFYPSDIAVEWESNGQPENNYKTTPPVLDSDGSFFLYSKLTVDKSRWQQGNVFSCSVMHEALHNHYTQKSLSLSPGK
second and fourth polypeptide chains: EIVMTQSPATLSLTPGERATLSCRASQSVSSNYLSWFQQIPGQAPRLLIYGASTRATGIPARFSGSGSGTDFTLTISSLQPEDFAVYYCQQDYDLPWTFGQGTKVEIKGGGSGGGGEVQLVESGGGLVQPGGSLRLSCAASGFTFSSYTMSWVRQAPGKGLEWVAYISIGGGTTYYPDTVKGRFTISRDNAKNSLYLQMNSLRAEDTAVYYCARQGLPYYFDYWGQGTLVTVSSGGCGGGKVAACKEKVAALKEKVAALKEKVAALKE
As for B3, the “EC50 (read off the curve)” value in assay [5] was around 0.1 µg/mL; in assay [6] it was around 0.007 µg/mL.

B4: DART-A5 (bispecific antibody)
chain 1: DIQMTQSPSSLSASVGDRVTITCKASQDVNEAVAWYQQKPGKAPKLLIYWASTRHTGVPSRFSGSGSGTDFTLTISSLQPEDFATYYCQQHYNTPLTFGQGTKVEIKGGGSGGGGQVQLQESGPGLVKPSETLSLTCTVSGGSISSYYWSWIRQPPGKGLEWIGRIYTSGSTNYNPSLKSRVTMSVDTSKNQFSLKLSSVTAADTAVYYCARDGWYDEDYNYYGMDVWGQGTTVTVSSGGCGGGEVAACEKEVAALEKEVAALEKEVAALEKLEPKSADKTHTCPPCPAPEAAGGPSVFLFPPKPKDTLYITREPEVTCVVVDVSHEDPEVKFNWYVDGVEVHNAKTKPREEQYNSTYRVVSVLTVLHQDWLNGKEYKCKVSNKALPAPIEKTISKAKGQPREPQVYTLPPSREEMTKNQVSLTCLVKGFYPSDIAVEWESNGQPENNYKTTPPVLDSDGSFFLYSKLTVDKSRWQQGNVFSCSVMHEALHNHYTQKSLSLSPGK
chain 2: EIVMTQSPATLSLSPGERATLSCRASQSVSSNYLSWYQQKPGQAPRLLIYGASTRATGIPARFSGSGSGTDFTLTISSLQPEDFAVYYCQQDYDLPWTFGQGTKVEIKGGGSGGGGEVQLVESGGGLVQPGGSLRLSCAASGFTFSSYTMSWVRQAPGKGLEWVAYISIKGGTTYYPDTVKGRFTISRDNAKNSLYLQMNSLRAEDTAVYYCARQGLPYYGDYWGQGTLVTVSSGGCGGGKVAACKEKVAALKEKVAALKEKVAALKE
notes: Tetravalent; CD137 MAB-6(1.2) and hPD-L1 MAB-2(3.2)
On to B4, for which, in assay [7], the “EC50 (read off the curve)” value was around 0.02 µg/mL.
